# Residue numbers refer to the chain shown, from its start. In names and notes the source's numbering stands.
# B1: Ab1 Fab variant H2 S68E (Fab, V domains shown)
# VH: QVQLQESGPGLVKPSQTLSLTCTVSGYAFTAYNIHWVRQAPGQGLEWMGSFDPYDGGESYNQKFKDRLTISKDTSKNQVVLTMTNMDPVDTATYYCARGWYYFDYWGHGTLVTVSS
# VL: DIVMTQTPLSLPVTPGEPASISCRASKSISKYLAWYQQKPGQAPRLLIYSGSTLQSGIPPRFSGSGYGTDFTLTINNIESEDAAYYFCQQHDESPYTFGEGTKVEIK
# notes: Fab
# B2: Ab1 Fab variant H2 S68I (Fab, V domains shown)
# VH: B1 VH with E58I
# VL: B1 VL
# notes: Fab
# B3: Ab1 Fab variant H2 S68Q (Fab, V domains shown)
# VH: B1 VH with E58Q
# VL: B1 VL
# notes: Fab
# B4: Ab1 Fab variant H3 A107T (Fab, V domains shown)
# VH: B1 VH with E58S, A97T
# VL: B1 VL
# notes: Fab
# B5: Ab1 Fab variant H3 A107V (Fab, V domains shown)
# VH: B1 VH with E58S, A97V
# VL: B1 VL
# notes: Fab
# B6: Ab1 Fab variant H3 F136L (Fab, V domains shown)
# VH: B1 VH with E58S, F103L
# VL: B1 VL
# notes: Fab
# B7: Ab1 Fab variant H3 R108G (Fab, V domains shown)
# VH: B1 VH with E58S, R98G
# VL: B1 VL
# notes: Fab
# B8: Ab1 Fab variant H3 Y111A (Fab, V domains shown)
# VH: B1 VH with E58S, Y101A
# VL: B1 VL
# notes: Fab
# B9: Ab1 Fab variant H3 Y111L (Fab, V domains shown)
# VH: B1 VH with E58S, Y101L
# VL: B1 VL
# notes: Fab
# B10: Ab1 Fab variant H3 Y138Q (Fab, V domains shown)
# VH: B1 VH with E58S, Y105Q
# VL: B1 VL
# notes: Fab
# B11: Ab1 Fab variant H3 Y138T (Fab, V domains shown)
# VH: B1 VH with E58S, Y105T
# VL: B1 VL
# notes: Fab
# B12: Ab1 Fab variant H3 Y138V (Fab, V domains shown)
# VH: B1 VH with E58S, Y105V
# VL: B1 VL
# notes: Fab
# B13: Ab1 Fab variant L3 D110H (Fab, V domains shown)
# VH: B1 VH with E58S
# VL: B1 VL with D92H
# notes: Fab
# B14: Ab1 Fab variant L3 D110N (Fab, V domains shown)
# VH: B1 VH with E58S
# VL: B1 VL with D92N
# notes: Fab
# B15: Ab1 Fab variant L3 E111I (Fab, V domains shown)
# VH: B1 VH with E58S
# VL: B1 VL with E93I
# notes: Fab
# B16: Ab1 Fab variant L3 E111L (Fab, V domains shown)
# VH: B1 VH with E58S
# VL: B1 VL with E93L
# notes: Fab
# B17: Ab1 Fab variant L3 H109N (Fab, V domains shown)
# VH: B1 VH with E58S
# VL: B1 VL with H91N
# notes: Fab
# B18: Ab1 Fab variant L3 H109Q (Fab, V domains shown)
# VH: B1 VH with E58S
# VL: B1 VL with H91Q
# notes: Fab
# B19: Ab1 Fab variant L3 Q107S (Fab, V domains shown)
# VH: B1 VH with E58S
# VL: B1 VL with Q89S
# notes: Fab
# B20: Ab1 Fab variant L3 Q108A (Fab, V domains shown)
# VH: B1 VH with E58S
# VL: B1 VL with Q90A
# notes: Fab
# B21: Ab1 Fab variant L3 Q108L (Fab, V domains shown)
# VH: B1 VH with E58S
# VL: B1 VL with Q90L
# notes: Fab
# B22: Ab1 Fab variant L3 Q108R (Fab, V domains shown)
# VH: B1 VH with E58S
# VL: B1 VL with Q90R
# notes: Fab
# B23: Ab1 Fab variant L3 S135G (Fab, V domains shown)
# VH: B1 VH with E58S
# VL: B1 VL with S94G
# notes: Fab
# B24: Ab1 Fab variant L3 S135H (Fab, V domains shown)
# VH: B1 VH with E58S
# VL: B1 VL with S94H
# notes: Fab
# B25: Ab1 Fab variant L3 S135P (Fab, V domains shown)
# VH: B1 VH with E58S
# VL: B1 VL with S94P
# notes: Fab
# B26: Ab1 Fab variant L3 S135V (Fab, V domains shown)
# VH: B1 VH with E58S
# VL: B1 VL with S94V
# notes: Fab
# B27: Ab1 Fab variant L3 T138F (Fab, V domains shown)
# VH: B1 VH with E58S
# VL: B1 VL with T97F
# notes: Fab
# B28: Ab1 Fab variant L3 T138S (Fab, V domains shown)
# VH: B1 VH with E58S
# VL: B1 VL with T97S
# notes: Fab
# B29: Ab1 Fab variant L3 Y137T (Fab, V domains shown)
# VH: B1 VH with E58S
# VL: B1 VL with Y96T
# notes: Fab
# B30: Ab1 Fab variant L3 Y137V (Fab, V domains shown)
# VH: B1 VH with E58S
# VL: B1 VL with Y96V
# notes: Fab
# B31: Ab1 Fab variant H1 T32A + H2 F58I (Fab, V domains shown)
# VH: B1 VH with T30A, F51I, E58S
# VL: B1 VL
# notes: Fab
# B32: Ab1 Fab variant H1 T32A + H2 F58I, G66E (Fab, V domains shown)
# VH: B1 VH with T30A, F51I, G56E, E58S
# VL: B1 VL
# notes: Fab
# B33: Ab1 Fab variant H1 T32A + H2 F58I, G66E, N71H (Fab, V domains shown)
# VH: B1 VH with T30A, F51I, G56E, E58S, N61H
# VL: B1 VL
# notes: Fab
# B34: Ab1 Fab variant H1 T32A + H2 F58I, N71H (Fab, V domains shown)
# VH: B1 VH with T30A, F51I, E58S, N61H
# VL: B1 VL
# notes: Fab
# B35: Ab1 Fab variant H1 T32A + H2 F58I, S69V (Fab, V domains shown)
# VH: B1 VH with T30A, F51I, E58S, S59V
# VL: B1 VL
# notes: Fab
# Biological target: T1, recombinant human ROR1 extracellular domain (human, UniProt Q01973 30-406)
# T1 construct: biotinylated for the filter lifts; also called huROR1-ECD; human ROR1-ECD
# Test: capture filter lift
# Protocol: Subsequently, the filter was applied to the agar plates as described above. For detection of antigen binding, the filter was rinsed briefly in PBS, and transferred to biotinylated huROR1-ECD (ACROBiosystems, cat. #RO1-H522y) in 5% M-P.
# Filters were incubated with 2.3 nM biotinylated ROR1 diluted in 5% M-P for 2 h at 25° C. with constant agitation, and washed 5 times, 2 minutes each wash, with constant agitation in PBS-T. Alternatively, filters were washed more rapidly using a squirt bottle and sintered glass funnel for vacuum filtration. The filters were transferred to 10 mL of High Sensitivity Neutravidin, HRP conjugate (Thermo Scientific, cat. #31030) diluted 5000-fold in 1% BSA in PBS and incubated for 1 h at 25° C. The filters were then washed 5 times in PBS-T and were developed with 1-Step Ultra TMB-Blotting.
# All libraries were initially screened by capture lift to identify variants with improved binding. The capture lift assay, described in Example 1, enables the filter lift assay to discern variants that bind antigen more strongly based on the staining intensity. In order to determine the optimal concentration of antigen to use for screening, biotinylated huROR1-ECD was titrated on a capture lift of Ab1 Fab. Binding to Ab1 was clearly visible at antigen concentrations ≥23 nM and the signal was diminished at lower huROR1 concentrations. […] In addition, for more stringent screening, filters were probed with lower concentrations of antigen and/or development of the filter was terminated earlier, before the Ab1 staining was visible. […] In this example, approximately 250 library variants were plated. Twelve variants clearly bound huROR1 (FIG. 4, numbered).
# T1 sequence (Q01973 30-406 limits assumed): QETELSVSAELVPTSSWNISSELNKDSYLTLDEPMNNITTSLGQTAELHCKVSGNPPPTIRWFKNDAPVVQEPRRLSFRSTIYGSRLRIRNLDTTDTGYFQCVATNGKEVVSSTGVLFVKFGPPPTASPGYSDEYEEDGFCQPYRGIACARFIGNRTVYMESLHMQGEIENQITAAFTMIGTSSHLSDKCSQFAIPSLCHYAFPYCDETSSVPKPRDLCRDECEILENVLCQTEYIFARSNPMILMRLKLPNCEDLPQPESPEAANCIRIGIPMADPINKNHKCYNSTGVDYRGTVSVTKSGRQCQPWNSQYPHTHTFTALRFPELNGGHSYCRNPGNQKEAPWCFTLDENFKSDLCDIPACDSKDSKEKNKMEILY
row,binding result,Binder
1,binds,B1
2,binds,B2
3,binds,B3
4,binds,B4
5,binds,B5
6,binds,B6
7,binds,B7
8,binds,B8
9,binds,B9
10,binds,B10
11,binds,B11
12,binds,B12
13,binds,B13
14,binds,B14
15,binds,B15
16,binds,B16
17,binds,B17
18,binds,B18
19,binds,B19
20,binds,B20
21,binds,B21
22,binds,B22
23,binds,B23
24,binds,B24
25,binds,B25
26,binds,B26
27,binds,B27
28,binds,B28
29,binds,B29
30,binds,B30

# Biological target: T1, recombinant human ROR1 extracellular …
# Test: ELISA with prolonged wash, soluble Fab on coated huROR1-ECD
# Protocol: The previously described filter lift assay provides a visual, qualitative assessment of antigen binding (Example 1). In order to assess the ROR1 binding activity of Ab1 Fab in a more quantitative fashion, an ELISA assay was developed. A 96-well Costar-3366 plate was coated with 50 μL/well of 1 μg/mL human ROR1-ECD (ACROBiosystems, cat. #RO1-H522y) in PBS overnight at 4° C. The plate was rinsed once with PBS-T and blocked with 100 μL/well of 5% M-P for 1 h at 25° C. Fab samples were serially diluted 3-fold using 5% M-P and 50 μL/well was incubated for 1 h at 25° C. The plate was washed three times with PBS-T and 50 μL/well anti-human kappa, and HRP conjugate (Southern Biotech, cat. #2060-05) diluted 10,000-fold in 5% M-P was added for 1 h at 25° C. In certain assays (extended wash format), the plate was placed in large volumes (up to 1 L) of PBS-T and incubated, with mixing, for 2-5 h prior to the addition of anti-human kappa, HRP conjugate. The plate was washed three times with PBS-T, and developed with 50 μL/well 1-Step Ultra TMB-ELISA (Thermo Scientific, cat. #34028). The reaction was terminated by the addition of 2 N H2504 and the A450 was determined using a Spectramax plate reader.
# Subsequently, the libraries were screened by capture lift to identify the strongest binding variants. The identity of the variants was determined by DNA sequencing and the relative affinities were characterized using an ELISA (described in Example 2) modified to enable further discrimination between the highest affinity variants. Specifically, following the initial incubation with soluble Fab, the plates were washed for a prolonged time (>1 h) in large volumes of PBS-T. The plates were then developed as described in Example 2.
row,Kd [nM],Binder
1,4.5,B31
2,5,B32
3,3.4,B33
4,2.2,B34
5,8.5,B35

# From patent publication US20230021388A1 (VELOSBIO, published 2023)
